Results taken from PMC10760972.
Where two headings read alike, the source gives them in different places.

Assays:
AURKB = AURKB (UniProt Q96GD4); assay: co-precipitation from cells, immunoblot; conditions: reference: NSFL1C wild type; sites S140

For “NSFL1C (from UniProt Q9UNZ2) NSFL1C-S140A”, the “binding against the reference” value (AURKB) was “weaker”.
For AURKB: AURKB-3KR (K31R/K56R/K85R), the enzymatic_activity (ubiquitination at K31) was “decreases”, the localisation_or_trafficking (ubiquitination at K31) was “decreases” and the enzymatic_activity (ubiquitination at K56) was “decreases”. For the same substance, the localisation_or_trafficking (ubiquitination at K56) was “decreases”, the enzymatic_activity (ubiquitination at K85) was “decreases” and the localisation_or_trafficking (ubiquitination at K85) was “decreases”.
With NSFL1C: NSFL1C-S140A the other (phosphorylation at S140) was “abolishes”.
